The source of these data is PMC3478510, “LI-cadherin cis-dimerizes in the plasma membrane Ca^2+ independently and forms highly dynamic trans-contacts” (Cellular and Molecular Life Sciences: CMLS, 2012).

In experiment [1] the target is LI-cadherin ECD (Homo sapiens) (UniProt Q12864). To be noted: cited from earlier work.
For experiment [2], the target named is T1, LI-cadherin C-terminally tagged with cyan (LI-CFP) or yellow (LI-YFP) fluorescent protein (UniProt Q9R100 26-827).
T1 construct: LI-cadherin (cadherin-17); Two differently tagged copies of the same protein (CFP donor, YFP acceptor), co-expressed for FRET; In the control with EGFR-CFP only the YFP-tagged copy was present; also called LI-cadherin-CFP fusion protein; LI-cadherin-YFP fusion protein; source: HEK293, transfected (FuGENE-6), in living cells; not shown: CFP (on one copy) or YFP (on the other copy), C-terminal, kept
T1 sequence (looked up): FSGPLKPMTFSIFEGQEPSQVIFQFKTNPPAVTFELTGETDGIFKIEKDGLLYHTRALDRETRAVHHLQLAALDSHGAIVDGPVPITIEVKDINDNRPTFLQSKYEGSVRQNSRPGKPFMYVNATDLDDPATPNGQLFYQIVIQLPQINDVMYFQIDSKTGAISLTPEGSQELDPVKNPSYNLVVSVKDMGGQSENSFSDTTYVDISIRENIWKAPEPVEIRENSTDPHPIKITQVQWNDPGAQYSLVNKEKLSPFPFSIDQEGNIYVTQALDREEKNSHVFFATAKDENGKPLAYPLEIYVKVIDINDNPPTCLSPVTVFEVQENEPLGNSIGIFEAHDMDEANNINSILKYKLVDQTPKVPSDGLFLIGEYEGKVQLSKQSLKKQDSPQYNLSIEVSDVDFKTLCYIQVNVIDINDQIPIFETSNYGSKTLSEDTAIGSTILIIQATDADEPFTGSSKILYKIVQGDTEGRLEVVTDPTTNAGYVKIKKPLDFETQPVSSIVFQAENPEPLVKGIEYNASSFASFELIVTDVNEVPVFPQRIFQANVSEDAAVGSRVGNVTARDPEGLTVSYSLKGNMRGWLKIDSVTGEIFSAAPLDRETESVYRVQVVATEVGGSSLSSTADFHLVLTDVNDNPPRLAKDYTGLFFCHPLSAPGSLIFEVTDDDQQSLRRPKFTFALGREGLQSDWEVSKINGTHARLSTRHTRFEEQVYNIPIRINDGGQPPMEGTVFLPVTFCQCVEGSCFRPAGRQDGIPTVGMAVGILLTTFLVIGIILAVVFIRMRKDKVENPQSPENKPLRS
Kind of experiment: FRET or BRET; FRET competition: twofold excess of untagged LI-cadherin coexpressed with LI-CFP and LI-YFP in HEK293 cells; acceptor photobleaching. The settings on record: partners not purified. For orientation: Bioluminescence resonance energy transfer reports proximity on the nanometre scale.

With LI-cadherin ECD (from UniProt Q12864), the Kd in experiment [1] was 27 µM.

B1: untagged LI-cadherin (natural protein, UniProt Q9R100 26-827, looked up)
chain: T1 sequence (looked up)
notes: LI-cadherin (cadherin-17), untagged wild type; The expression construct of the untagged protein is not described in the methods; also called LIwt; wild-type LI; source: HEK293, transfected, in living cells (twofold excess, coexpressed with LI-CFP and LI-YFP)
Consider B1, for which the “FRET efficiency of LI-CFP/LI-YFP with a twofold excess of untagged LI-cadherin” value in experiment [2] is 5.2%.

A word on the Kd: it is the equilibrium constant for the complex coming apart.
